Measurements taken from US20220259322A1 (WASHINGTON UNIVERSITY, published 2022).
Blank lines part the entries; values can stand above or below the binder they belong to.

Legend:
[1] = target: T1, 78-kDa glucose-regulated protein (GRP78) (UniProt P11021 19-654); test: flow cytometry, H460 cells, gMFI minus secondary only, one site-specific binding fit; no unit beside the number, x axis in nM
T1 construct: 'peptides 86-90' in Biacore; also called BiP; HSP5a
Method: (§1) FIG. 9A-9B are graphs showing the cell surface binding of 6F8 to H460 cells. […] Binding conditions: 0.1×10^6 cells incubated with 3-fold dilutions of antibody started at 0.7 μM. Cells were washed 2× with FACS buffer. Stained with secondary antibody. Washed twice and analyzed in FACS buffer by flow cytometer FACS Canto II (BD). Geometric mean fluorescence intensity was fitted using the One site-specific binding in Graphpad Prism software.

C-terminal GRP78 peptide = target: T2, C-terminal GRP78 peptide; test: ELISA on C-terminal GRP78 peptide
T2 construct: name from the legend, the sheet prints only 'GRP78 Hybridoma ELISA'

peptide 86 [2] = target: T3, peptide 86; test: Biacore T200, 6F8 immobilized on CM5 chip, peptide as analyte, blank-subtracted relative response
T3 construct: 12-mer from the C-terminus of GRP78
T3 peptide: IEDFKAKKKELE
Method: (§2) FIG. 5A-5B show the epitope mapping of 6F8 antibody. FIG. 5A depicts a graph of the relative response binding. Epitope mapping was performed using Biacore T200. 6F8 was immobilized on the CM5 sensor chip and peptides 86-90 (overlapping peptides in the immunogen region of 6F8) were passed as analyte. Relative binding response (response on blank channel subtracted from the 6F8 immobilized channel) of each peptide to 6F8 was analyzed using the BIAevaluation software. Cut-off for nonbinding peptides is 0 RU. […] The figure was generated using Pymol software (SEQ ID NO: 71).
(§3) Seven peptides were synthesized from the c-terminus of GRP78. Each peptide was a 12-mer with 5 amino acid overlap. The sequences of the peptides are shown above. Each of the peptide was coated in duplicate on nitrocellulose membrane and incubated with 7A9 antibody. After washing, the blot was developed using chemiluminescence. The arrows indicate positive spot, FIG. 4. 7A9 epitope: SEQ ID NO: 70 ([…] . . . EDTAE). FIG. 5A-5B Epitope mapping of 6F8 antibody was performed using Biacore T200. 6F8 was immobilized on the CM5 sensor chip and peptides 86-90 (overlapping peptides in the immunogen region of 6F8) were passed as analyte. Relative binding response (response on blank channel subtracted from the 6F8 immobilized channel) of each peptide to 6F8 was analyzed using the BIAevaluation software. Cut-off for nonbinding peptides is 0 RU. Three-dimensional model of GRP78 protein indicating the epitope sequence on the protein in magenta color. The figure was generated using Pymol software.

peptide 87 [3] = target: T4, peptide 87; test: as above
T4 construct: 12-mer from the C-terminus of GRP78
T4 peptide: KKELEEIVQPII
Method: as §2, §3

peptide 88 = target: T5, peptide 88; test: as above
T5 construct: 12-mer from the C-terminus of GRP78
T5 peptide: VQPIISKLYGSA
Method: as §2, §3

peptide 89 [4] = target: T6, peptide 89; test: as above
T6 construct: 12-mer from the C-terminus of GRP78
T6 peptide: LYGSAGPPPTGE
Method: as §2, §3

peptide 90 [5] = target: T7, peptide 90; test: as above
T7 construct: 12-mer from the C-terminus of GRP78
T7 peptide: PPTGEEDTAEKD
Method: as §2, §3

[6] = target: T1, 78-kDa glucose-regulated protein (GRP78); test: flow cytometry, A549 cells, gMFI minus secondary only, 4PL fit
Method: (§4) FIG. 7A-7B show graphs of flowcytometry data for the cell surface binding of GRP78 antibodies. […] Binding conditions: 0.1×10⁶ cells incubated with 3-fold dilutions of antibody started at 2.22 μM. Cells were washed 2× with FACS buffer. Stained with secondary antibody. Washed twice and analyzed in FACS buffer by flow cytometer FACS Canto II (BD). Geometric mean fluorescence intensity was fitted using the “One site-specific binding” in Graphpad Prism software.
(§5) A Flow cytometry assay for cell surface binding of 6F8 antibody to A549 cells was done (FIG. 7A-7B). Binding conditions: 0.1×10⁶ cells incubated with 3-fold dilutions of antibody started at 2.22 μM. Cells were washed 2× with FACS buffer. Stained with secondary antibody. Washed twice and analyzed in FACS buffer by flow cytometer FACS Canto II (BD). Geometric mean fluorescence intensity was fitted using the “One site-specific binding” in Graphpad Prism software. Graph showing the same data as in A fitted using the “Sigmoidal, 4PL, X is log(concentration)” in Graphpad Prism software (FIG. 7B).

[7] = target: T1, 78-kDa glucose-regulated protein (GRP78); test: flow cytometry, H460 cells, gMFI minus secondary only, 4PL fit
Method: as §1, with “Geometric mean fluorescence intensity was fitted using the One site-specific binding in Graphpad Prism software.” left out

[8] = target: T1, 78-kDa glucose-regulated protein (GRP78); test: flow cytometry, A549 cells, gMFI minus secondary only, one site-specific binding fit; no unit beside the number, x axis in nM
Method: as §4, §5

[9] = target: T1, 78-kDa glucose-regulated protein (GRP78); test: flow cytometry, H460 cells, gMFI, 4PL fit; x axis of panel B is printed 'Log10 [6F8] nM' although title and legend say 7A9
Method: FIG. 11A-11B show flow cytometry for cell surface binding of 7A9 antibody to H460 cells. FIG. 11A is the flow cytometry assay for cell surface binding of 7A9 antibody to H460 cells. Binding conditions: 0.1×10⁶ cells incubated with 3-fold dilutions of antibody started at 1.0 μM. Cells were washed 2× with FACS buffer. Stained with secondary antibody. Washed twice and analyzed in FACS buffer by flow cytometer FACS Canto II (BD). […]

peptide 90 [10] = target: T7, peptide 90; test: peptide dot blot on nitrocellulose, chemiluminescence
Method: Seven peptides were synthesized from the c-terminus of GRP78. Each peptide was a 12-mer with 5 amino acid overlap. Each of the peptide was coated in duplicate on nitrocellulose membrane and incubated with 7A9 antibody. After washing, the blot was developed using chemiluminescence. The arrows indicate positive spot.
as §3

[11] = target: T1, 78-kDa glucose-regulated protein (GRP78); test: flow cytometry, H460 cells, gMFI, one site-specific binding fit; no unit beside the number, x axis in nM; all points lie at gMFI about 1000-1400, so the fit rests on no point of the rising part
Method: FIG. 11A-11B show flow cytometry for cell surface binding of 7A9 antibody to H460 cells. FIG. 11A is the flow cytometry assay for cell surface binding of 7A9 antibody to H460 cells. Binding conditions: 0.1×10⁶ cells incubated with 3-fold dilutions of antibody started at 1.0 μM. Cells were washed 2× with FACS buffer. Stained with secondary antibody. Washed twice and analyzed in FACS buffer by flow cytometer FACS Canto II (BD). Geometric mean fluorescence intensity was fitted using the One site-specific binding in Graphpad Prism software.

peptide 86 [12] = target: T3, peptide 86; test: Biacore T200, 7A9 immobilized on CM5 chip, peptide as analyte, blank-subtracted relative response
Method: as §2, with “6A” for “5A-5B show the epitope mapping of 6F8 antibody. FIG. 5A”, “binding of 7A9.” for “binding.”, “7A9” for “6F8”, “7A9)” for “6F8)”, “70).” for “71).”
(§6) FIG. 6A-6B Epitope mapping of 7A9 antibody was performed using Biacore T200. 7A9 was immobilized on the CM5 sensor chip and peptides 86-90 (overlapping peptides in the immunogen region of 7A9) were passed as analyte. Relative binding response (response on blank channel subtracted from the 7A9 immobilized channel) of each peptide to 7A9 was analyzed using the BIAevaluation software. Cut-off for nonbinding peptides is 0 RU. Three-dimensional model of GRP78 protein indicating the epitope sequence on the protein in red color. The figure was generated using Pymol software.

peptide 87 [13] = target: T4, peptide 87; test: as above
Method: as §2, with “6A” for “5A-5B show the epitope mapping of 6F8 antibody. FIG. 5A”, “binding of 7A9.” for “binding.”, “7A9” for “6F8”, “7A9)” for “6F8)”, “70).” for “71).”
as §6

peptide 89 [14] = target: T6, peptide 89; test: as above
Method: as §2, with “6A” for “5A-5B show the epitope mapping of 6F8 antibody. FIG. 5A”, “binding of 7A9.” for “binding.”, “7A9” for “6F8”, “7A9)” for “6F8)”, “70).” for “71).”
as §6

T1 sequence (P11021 19-654 limits assumed): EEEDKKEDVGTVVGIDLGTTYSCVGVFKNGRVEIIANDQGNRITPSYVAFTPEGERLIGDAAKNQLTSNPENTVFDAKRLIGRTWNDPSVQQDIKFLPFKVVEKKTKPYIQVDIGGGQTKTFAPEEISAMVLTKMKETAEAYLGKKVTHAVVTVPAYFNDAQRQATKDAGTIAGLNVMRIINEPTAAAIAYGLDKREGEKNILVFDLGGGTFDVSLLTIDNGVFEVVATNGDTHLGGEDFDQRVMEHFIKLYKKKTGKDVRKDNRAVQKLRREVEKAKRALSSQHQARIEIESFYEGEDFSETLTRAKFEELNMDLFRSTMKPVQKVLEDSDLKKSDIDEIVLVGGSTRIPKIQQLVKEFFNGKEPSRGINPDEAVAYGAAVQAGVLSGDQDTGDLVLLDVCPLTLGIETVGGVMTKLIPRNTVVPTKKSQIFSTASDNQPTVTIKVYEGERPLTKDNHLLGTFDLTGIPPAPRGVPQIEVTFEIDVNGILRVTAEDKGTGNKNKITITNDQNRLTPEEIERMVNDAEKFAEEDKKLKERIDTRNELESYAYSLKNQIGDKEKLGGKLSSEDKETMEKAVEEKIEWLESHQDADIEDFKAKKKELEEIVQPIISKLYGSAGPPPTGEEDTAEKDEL
T2 sequence (P11021 other isoform, or with tags, fused parts or gaps): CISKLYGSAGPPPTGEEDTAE

- Kd [1]: 35.8 nM
- EC50 (read off the curve) (C-terminal GRP78 peptide): ~1000 nM
- binding result (peptide 86 [2]): no binding
- binding result (peptide 87 [3]): no binding
- binding result (peptide 88): no binding
- binding result (peptide 89 [4]): no binding
- binding result (peptide 90 [5]): binds
- EC50 (read off the curve) [6]: ~50 nM
- EC50 (read off the curve) [7]: ~100 nM
- Kd [8]: 16.4 nM
B1: 6F8 anti-GRP78 mouse monoclonal antibody (antibody, V domains shown)
VH: EVQLVESGGGLVRPKGSLKLSCAASGFTLNTSAMNWVRQVPGKGLEWVGRIRSKNYNYATYYADSVKDRFTIFRDDSQNMLYLQMNNLKTEDTAMYYCVRPPGFAYWGQGTLVTVSA
VL: DIQMTQSPSSLSASLGERVSLTCRTSQEISGHLSWLQQKPDGTIKRLIYAASSLDSGVPKRFSGSRSGSDYSLTISSLESEDFADYYCLQYSSYPYTFGGGTKLEIK

- EC50 (read off the curve) [9]: ~40 nM
- binding result (peptide 90 [10]): binds
- Kd [11]: 0.108 nM
- binding result (peptide 86 [12]): no binding
- binding result (peptide 87 [13]): no binding
- binding result (peptide 89 [14]): no binding
B2: 7A9 anti-GRP78 mouse monoclonal antibody (antibody, V domains shown)
VH: EVQLVETGGGLVQPKGSLKLSCAVSGITFNINAMNWVRQAPGKGLEWVARIRSKSNNYATYYADSVKDRFTISRDDSQSMLYLQMNNLKTEDTAMYYCVRDITRAGYFDVWGAGTTVTVSS
VL: QIVLTQSPAIMSASPGEKVTITCSASSSVIYMHWFQQKPGTSPKLWIYSTSNLASGVPARFSGSGSGTSYSLTISRMEAEDAATYYCQQRSSYPLTFGAGTKLELK
